Measured values published in patent publication US20110091449A1 (University of Pennsylvania, published 2011).
One block for each binder: values may come before it.

Key:
[1] = target: T1, baculovirus-produced recombinant human Dsg4-EHis (human, UniProt Q86SJ6 50-631); assay: immunoprecipitation of Dsg4-EHis with scFv, anti-E tag immunoblot
T1 construct: not shown: E-tag and histidine tag
T1 sequence (looked up): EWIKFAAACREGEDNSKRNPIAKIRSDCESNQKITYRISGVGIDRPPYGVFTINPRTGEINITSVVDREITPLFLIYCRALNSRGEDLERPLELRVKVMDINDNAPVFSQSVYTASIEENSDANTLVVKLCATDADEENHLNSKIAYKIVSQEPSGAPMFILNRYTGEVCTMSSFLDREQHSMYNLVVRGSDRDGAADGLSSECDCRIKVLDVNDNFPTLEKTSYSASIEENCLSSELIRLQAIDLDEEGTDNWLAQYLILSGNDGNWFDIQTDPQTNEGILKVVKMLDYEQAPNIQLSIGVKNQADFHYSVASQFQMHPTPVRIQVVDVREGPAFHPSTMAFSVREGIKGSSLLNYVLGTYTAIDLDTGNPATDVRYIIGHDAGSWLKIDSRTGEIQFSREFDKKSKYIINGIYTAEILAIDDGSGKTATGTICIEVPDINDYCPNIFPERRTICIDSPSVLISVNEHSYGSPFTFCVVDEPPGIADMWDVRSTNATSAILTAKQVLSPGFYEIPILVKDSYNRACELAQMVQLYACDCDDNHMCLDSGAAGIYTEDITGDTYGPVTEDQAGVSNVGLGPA
Protocol: To determine whether anti-Dsg1 scFvs also bind Dsg4, baculovirus-produced recombinant human Dsg4-EHis and human Dsg1-EHis (“EHis” tag defined above) was used (Nagasaka et al., 2004 J. Clin. Invest 114:1484-1492.). Baculovirus-infected insect cell culture supernatants containing recombinant molecules were incubated with scFvs for 30 minutes and then immunoprecipitated with anti-HA agarose (Sigma-Aldrich) at 4° C. for 2 hours with gentle rotation. After washing with TBS-Ca, the immunoprecipitates were resuspended in Laemmli sample buffer, separated by SDS-PAGE, and transferred to nitrocellulose membranes (Bio-Rad Labratories). Membranes were probed with HRP-conjugated anti-E-tag antibody (1:2000 dilution, GE Healthcare Bio-Sciences).
Some pemphigus sera bind Dsg4, and this binding was due to antibodies against Dsg1 that cross react with Dsg4. To determine whether any of the anti-Dsg1 monoclonal antibodies crossreact with Dsg4, scFvs were used to immunoprecipitate recombinant Dsg4 containing a carboxy-terminal E-epitope tag, then identified its presence on an immunoblot stained with anti-E tag antibodies.

[2] = target: T2, recombinant human desmoglein 3 (Dsg3) on ELISA plates (MBL) (human, UniProt P32926 50-615, limits assumed); assay: Dsg3 ELISA (MBL), soluble scFv, anti-HA detection
T2 construct: Commercial Dsg3 ELISA plate (MBL)
T2 sequence (looked up): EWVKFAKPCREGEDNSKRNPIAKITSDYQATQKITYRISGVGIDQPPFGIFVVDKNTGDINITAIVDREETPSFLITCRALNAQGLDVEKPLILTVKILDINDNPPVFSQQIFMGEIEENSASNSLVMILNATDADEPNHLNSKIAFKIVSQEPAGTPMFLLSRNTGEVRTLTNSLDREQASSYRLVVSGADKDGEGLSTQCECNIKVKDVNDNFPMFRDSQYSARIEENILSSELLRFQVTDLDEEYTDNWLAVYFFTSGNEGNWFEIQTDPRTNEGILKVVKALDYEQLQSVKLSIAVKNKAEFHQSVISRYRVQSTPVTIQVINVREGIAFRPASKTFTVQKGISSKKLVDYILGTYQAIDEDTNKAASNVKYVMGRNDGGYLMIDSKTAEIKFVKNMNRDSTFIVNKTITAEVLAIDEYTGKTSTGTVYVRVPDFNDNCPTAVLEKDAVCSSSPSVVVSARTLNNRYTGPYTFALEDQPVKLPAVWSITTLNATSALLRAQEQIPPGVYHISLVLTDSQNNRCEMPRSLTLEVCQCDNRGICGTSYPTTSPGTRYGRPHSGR

- binding result [1]: no binding
- binding result [2]: no binding
B1: 1-18/L12 (scFv)
scFv: ELQMTQSPSTLSASVGDRVTITCRASQGISNWLAWYQQKPGKAPKLLIHKASSLESGVPSRFSGSGSGTEFTLTISSLQPDDFATYYCQQYYTYPLTFGGGTKVEIKGGSSRSSSSGGGGSGGGGQVQLVQSGAEVKKPGASVKVSCKASGYTFTNYGITWVRQAPGQGLEWMGWISVYNGDTKYAQKLQGRVTMTTDTPTNTVYMELRSLRSDDTAVYYCARGYGSGNWDYWGQGTLVTVSS
notes: VH1-18, VDJ1, VL gene L12; also called PF1-2-6

- binding result [1]: no binding
- binding result [2]: no binding
B2: 3-30/3h (scFv)
scFv: ELVLTQPPSVPVAPGQTANISCGGNNIGRQTVHWYQQKPGQAPVLVVFDDSDRPAGIPERFSGSNSGNTATLTISRVEAGDEADYYCQVWDSSSDHVVFGGGTQLTVLGGGSSRSSSSGGGGSGGGGQVQLVQSGGGVVQSGRSLRLSCAASGFTFSDYAMHWVRQAPGKGLEWVAVISHGGTKKYTGDSVKGRFIISRDNSKNTVFLQMNSLRVEDTAVYYCARDRVEGYVWGGTFDHWGQGTPVTVSS
notes: VH3-30, VDJ12, VL gene 3h; pathogenic; also called PF1-8-15; VH3-30 clone
